Data from patent US20110105394A1 (Novo Nordisk, published 2011).
*1 amine or outer side, *2 acyl side, *3 side chain or, on linkers, in order; H or OH if unused. Bridges are numbered along the chain shown (N, C = ends). Where no end group is shown, it is not given here. Side-chain parts run from the residue outwards. The star is where a group is joined. X1 = (S)‑4‑Carboxy‑4‑(17-carboxyheptadecanoylamino)butyryl, O=C(O)CCCCCCCCCCCCCCCCC(=O)N[C@@H](CCC(=O)*)C(=O)O; C20 diacid = O=C(O)CCCCCCCCCCCCCCCCCCC(=O)*; γGlu = O=C(O)[C@H](CCC(=O)[*:2])N[*:1]; Trx = NC[C@H]1CC[C@H](C(=O)O)CC1; AEEA = NCCOCCOCC(=O)O

T1: Amylin 3(a) receptor (human calcitonin receptor (CTa) with RAMP-3) (human, UniProt P30988 25-474; O60896 24-148, limits assumed)
T1 sequence (looked up) 1: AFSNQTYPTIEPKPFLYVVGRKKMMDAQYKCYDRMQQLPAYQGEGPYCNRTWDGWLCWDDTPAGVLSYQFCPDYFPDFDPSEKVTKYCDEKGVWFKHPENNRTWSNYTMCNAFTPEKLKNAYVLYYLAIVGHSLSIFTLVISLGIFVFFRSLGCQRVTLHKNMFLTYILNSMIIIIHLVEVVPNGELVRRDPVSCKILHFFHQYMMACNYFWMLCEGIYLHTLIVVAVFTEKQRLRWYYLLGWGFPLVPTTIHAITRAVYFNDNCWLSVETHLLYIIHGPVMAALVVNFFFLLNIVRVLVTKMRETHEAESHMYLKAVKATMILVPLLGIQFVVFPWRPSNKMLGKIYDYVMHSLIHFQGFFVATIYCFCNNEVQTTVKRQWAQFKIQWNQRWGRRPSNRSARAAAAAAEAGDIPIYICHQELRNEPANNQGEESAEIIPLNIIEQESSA
T1 sequence (looked up) 2: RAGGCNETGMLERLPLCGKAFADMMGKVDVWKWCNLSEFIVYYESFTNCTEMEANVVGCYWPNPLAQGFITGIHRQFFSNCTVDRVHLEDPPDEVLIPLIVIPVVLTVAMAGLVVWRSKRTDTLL

B1: N-alpha-[(S)-4-Carboxy-4-(19-carboxynonadecanoylamino)butyryl]-His-[His17]-pramlintide (peptide)
peptide: HKCNTATCATQRLANFLHHSSNNFGPILPPTNVGSNTY-NH2
modifications: disulfide 3-8; not fully specified (N-terminus); printed as N-alpha-[(S)-4-Carboxy-4-(19-carboxynonadecanoylamino)butyryl]-His-[His17]-pramlintide
B2: N-alpha-[2-(2-{2-[4-(S)-Carboxy-4-(19-carboxynonadecanoylamino)butyrylamino]ethoxy}ethoxy)acetyl]-His-[His1,Arg17]-pramlintide (peptide)
peptide: {C20 diacid-γGlu-AEEA}-HHCNTATCATQRLANFLRHSSNNFGPILPPTNVGSNTY-NH2
modifications: disulfide 3-8
SMILES: CC[C@H](C)[C@H](NC(=O)[C@@H]1CCCN1C(=O)CNC(=O)[C@H](Cc1ccccc1)NC(=O)[C@H](CC(N)=O)NC(=O)[C@H](CC(N)=O)NC(=O)[C@H](CO)NC(=O)[C@H](CO)NC(=O)[C@H](Cc1c[nH]cn1)NC(=O)[C@H](CCCNC(=N)N)NC(=O)[C@H](CC(C)C)NC(=O)[C@H](Cc1ccccc1)NC(=O)[C@H](CC(N)=O)NC(=O)[C@H](C)NC(=O)[C@H](CC(C)C)NC(=O)[C@H](CCCNC(=N)N)NC(=O)[C@H](CCC(N)=O)NC(=O)[C@@H](NC(=O)[C@H](C)NC(=O)[C@@H]1CSSC[C@H](NC(=O)[C@H](Cc2c[nH]cn2)NC(=O)[C@H](Cc2c[nH]cn2)NC(=O)COCCOCCNC(=O)CC[C@H](NC(=O)CCCCCCCCCCCCCCCCCCC(=O)O)C(=O)O)C(=O)N[C@@H](CC(N)=O)C(=O)N[C@@H]([C@@H](C)O)C(=O)N[C@@H](C)C(=O)N[C@@H]([C@@H](C)O)C(=O)N1)[C@@H](C)O)C(=O)N[C@@H](CC(C)C)C(=O)N1CCC[C@H]1C(=O)N1CCC[C@H]1C(=O)N[C@H](C(=O)N[C@@H](CC(N)=O)C(=O)N[C@H](C(=O)NCC(=O)N[C@@H](CO)C(=O)N[C@@H](CC(N)=O)C(=O)N[C@H](C(=O)N[C@@H](Cc1ccc(O)cc1)C(N)=O)[C@@H](C)O)C(C)C)[C@@H](C)O
B3: N-alpha-[2-(2-{2-[4-(S)-Carboxy-4-(19-carboxynonadecanoylamino)butyrylamino]ethoxy}ethoxy)acetyl]-His-[His1,His17]-pramlintide (peptide)
peptide: {C20 diacid-γGlu-AEEA}-HHCNTATCATQRLANFLHHSSNNFGPILPPTNVGSNTY-NH2
modifications: disulfide 3-8
SMILES: CC[C@H](C)[C@H](NC(=O)[C@@H]1CCCN1C(=O)CNC(=O)[C@H](Cc1ccccc1)NC(=O)[C@H](CC(N)=O)NC(=O)[C@H](CC(N)=O)NC(=O)[C@H](CO)NC(=O)[C@H](CO)NC(=O)[C@H](Cc1c[nH]cn1)NC(=O)[C@H](Cc1c[nH]cn1)NC(=O)[C@H](CC(C)C)NC(=O)[C@H](Cc1ccccc1)NC(=O)[C@H](CC(N)=O)NC(=O)[C@H](C)NC(=O)[C@H](CC(C)C)NC(=O)[C@H](CCCNC(=N)N)NC(=O)[C@H](CCC(N)=O)NC(=O)[C@@H](NC(=O)[C@H](C)NC(=O)[C@@H]1CSSC[C@H](NC(=O)[C@H](Cc2c[nH]cn2)NC(=O)[C@H](Cc2c[nH]cn2)NC(=O)COCCOCCNC(=O)CC[C@H](NC(=O)CCCCCCCCCCCCCCCCCCC(=O)O)C(=O)O)C(=O)N[C@@H](CC(N)=O)C(=O)N[C@@H]([C@@H](C)O)C(=O)N[C@@H](C)C(=O)N[C@@H]([C@@H](C)O)C(=O)N1)[C@@H](C)O)C(=O)N[C@@H](CC(C)C)C(=O)N1CCC[C@H]1C(=O)N1CCC[C@H]1C(=O)N[C@H](C(=O)N[C@@H](CC(N)=O)C(=O)N[C@H](C(=O)NCC(=O)N[C@@H](CO)C(=O)N[C@@H](CC(N)=O)C(=O)N[C@H](C(=O)N[C@@H](Cc1ccc(O)cc1)C(N)=O)[C@@H](C)O)C(C)C)[C@@H](C)O
B4: N-alpha-[4-Carboxy-4-({4-[(19-carboxynonadecanoylamino)methyl]transcyclohexanecarbonyl}amino)butyryl]-[His1,His17]-pramlintide (peptide)
peptide: {C20 diacid-Trx-γGlu}-HCNTATCATQRLANFLHHSSNNFGPILPPTNVGSNTY-NH2
modifications: disulfide 2-7
SMILES: CC[C@H](C)[C@H](NC(=O)[C@@H]1CCCN1C(=O)CNC(=O)[C@H](Cc1ccccc1)NC(=O)[C@H](CC(N)=O)NC(=O)[C@H](CC(N)=O)NC(=O)[C@H](CO)NC(=O)[C@H](CO)NC(=O)[C@H](Cc1c[nH]cn1)NC(=O)[C@H](Cc1c[nH]cn1)NC(=O)[C@H](CC(C)C)NC(=O)[C@H](Cc1ccccc1)NC(=O)[C@H](CC(N)=O)NC(=O)[C@H](C)NC(=O)[C@H](CC(C)C)NC(=O)[C@H](CCCNC(=N)N)NC(=O)[C@H](CCC(N)=O)NC(=O)[C@@H](NC(=O)[C@H](C)NC(=O)[C@@H]1CSSC[C@H](NC(=O)[C@H](Cc2c[nH]cn2)NC(=O)CC[C@H](NC(=O)[C@H]2CC[C@H](CNC(=O)CCCCCCCCCCCCCCCCCCC(=O)O)CC2)C(=O)O)C(=O)N[C@@H](CC(N)=O)C(=O)N[C@@H]([C@@H](C)O)C(=O)N[C@@H](C)C(=O)N[C@@H]([C@@H](C)O)C(=O)N1)[C@@H](C)O)C(=O)N[C@@H](CC(C)C)C(=O)N1CCC[C@H]1C(=O)N1CCC[C@H]1C(=O)N[C@H](C(=O)N[C@@H](CC(N)=O)C(=O)N[C@H](C(=O)NCC(=O)N[C@@H](CO)C(=O)N[C@@H](CC(N)=O)C(=O)N[C@H](C(=O)N[C@@H](Cc1ccc(O)cc1)C(N)=O)[C@@H](C)O)C(C)C)[C@@H](C)O
B5: N-alpha-[(S)-4-Carboxy-4-(19-carboxynonadecanoylamino)butyryl]-His-[His1,Arg17]-pramlintide (peptide)
peptide: HHCNTATCATQRLANFLRHSSNNFGPILPPTNVGSNTY-NH2
modifications: disulfide 3-8; not fully specified (N-terminus); printed as N-alpha-[(S)-4-Carboxy-4-(19-carboxynonadecanoylamino)butyryl]-His-[His1,Arg17]-pramlintide
B6: N-alpha-[(S)-4-Carboxy-4-(17-carboxyheptadecanoylamino)butyryl]-His-[His1,His17]-pramlintide (peptide)
peptide: X1-HHCNTATCATQRLANFLHHSSNNFGPILPPTNVGSNTY-NH2
modifications: disulfide 3-8
SMILES: CC[C@H](C)[C@H](NC(=O)[C@@H]1CCCN1C(=O)CNC(=O)[C@H](Cc1ccccc1)NC(=O)[C@H](CC(N)=O)NC(=O)[C@H](CC(N)=O)NC(=O)[C@H](CO)NC(=O)[C@H](CO)NC(=O)[C@H](Cc1c[nH]cn1)NC(=O)[C@H](Cc1c[nH]cn1)NC(=O)[C@H](CC(C)C)NC(=O)[C@H](Cc1ccccc1)NC(=O)[C@H](CC(N)=O)NC(=O)[C@H](C)NC(=O)[C@H](CC(C)C)NC(=O)[C@H](CCCNC(=N)N)NC(=O)[C@H](CCC(N)=O)NC(=O)[C@@H](NC(=O)[C@H](C)NC(=O)[C@@H]1CSSC[C@H](NC(=O)[C@H](Cc2c[nH]cn2)NC(=O)[C@H](Cc2c[nH]cn2)NC(=O)CC[C@H](NC(=O)CCCCCCCCCCCCCCCCC(=O)O)C(=O)O)C(=O)N[C@@H](CC(N)=O)C(=O)N[C@@H]([C@@H](C)O)C(=O)N[C@@H](C)C(=O)N[C@@H]([C@@H](C)O)C(=O)N1)[C@@H](C)O)C(=O)N[C@@H](CC(C)C)C(=O)N1CCC[C@H]1C(=O)N1CCC[C@H]1C(=O)N[C@H](C(=O)N[C@@H](CC(N)=O)C(=O)N[C@H](C(=O)NCC(=O)N[C@@H](CO)C(=O)N[C@@H](CC(N)=O)C(=O)N[C@H](C(=O)N[C@@H](Cc1ccc(O)cc1)C(N)=O)[C@@H](C)O)C(C)C)[C@@H](C)O
B7: N-alpha-[(S)-4-Carboxy-4-(19-carboxynonadecanoylamino)butyryl]-[His1,Arg17]-pramlintide (peptide)
peptide: {C20 diacid-γGlu}-HCNTATCATQRLANFLRHSSNNFGPILPPTNVGSNTY-NH2
modifications: disulfide 2-7
SMILES: CC[C@H](C)[C@H](NC(=O)[C@@H]1CCCN1C(=O)CNC(=O)[C@H](Cc1ccccc1)NC(=O)[C@H](CC(N)=O)NC(=O)[C@H](CC(N)=O)NC(=O)[C@H](CO)NC(=O)[C@H](CO)NC(=O)[C@H](Cc1c[nH]cn1)NC(=O)[C@H](CCCNC(=N)N)NC(=O)[C@H](CC(C)C)NC(=O)[C@H](Cc1ccccc1)NC(=O)[C@H](CC(N)=O)NC(=O)[C@H](C)NC(=O)[C@H](CC(C)C)NC(=O)[C@H](CCCNC(=N)N)NC(=O)[C@H](CCC(N)=O)NC(=O)[C@@H](NC(=O)[C@H](C)NC(=O)[C@@H]1CSSC[C@H](NC(=O)[C@H](Cc2c[nH]cn2)NC(=O)CC[C@H](NC(=O)CCCCCCCCCCCCCCCCCCC(=O)O)C(=O)O)C(=O)N[C@@H](CC(N)=O)C(=O)N[C@@H]([C@@H](C)O)C(=O)N[C@@H](C)C(=O)N[C@@H]([C@@H](C)O)C(=O)N1)[C@@H](C)O)C(=O)N[C@@H](CC(C)C)C(=O)N1CCC[C@H]1C(=O)N1CCC[C@H]1C(=O)N[C@H](C(=O)N[C@@H](CC(N)=O)C(=O)N[C@H](C(=O)NCC(=O)N[C@@H](CO)C(=O)N[C@@H](CC(N)=O)C(=O)N[C@H](C(=O)N[C@@H](Cc1ccc(O)cc1)C(N)=O)[C@@H](C)O)C(C)C)[C@@H](C)O

Target: T1, Amylin 3(a) receptor (human calcitonin …)
Assay: cell-based or functional assay

Potency Luciferase | Binder
0.1 nM | B1
0.2 nM | B2
0.08 nM | X1-HCNTATCATQRLANFLHHSSNNFGPILPPTNVGSNTY-NH2 (disulfide 2-7) [N-alpha-[(S)-4-Carboxy-4-(17-carboxyheptadecanoylamino)butyryl]-[His1,His17]-pramlintide]
0.1 nM | B3
0.4 nM | KCK([AEEA-Glu-Glu-C20 diacid])TATCATQRLANFLHHSSDNFGPILPPTNVGSNTY-NH2 (disulfide 2-7)
0.1 nM | B4
0.06 nM | {C20 diacid-4‑aminobutyryl}-CNTATCATQRLANFLHHSSNNFGPILPPTNVGSNTY-NH2 (disulfide 1-6) [N-alpha-[4-(19-Carboxynonadecanoylamino)butyryl]-[His17]-pramlintide (2-37)]
0.09 nM | {C20 diacid-γGlu-AEEA}-HCNTATCATQRLANFLHHSSNNFGPILPPTNVGSNTY-NH2 (disulfide 2-7)
0.07 nM | {C20 diacid-γGlu}-HCNTATCATQRLANFLHHSSNNFGPILPPTNVGSNTY-NH2 (disulfide 2-7) [N-alpha-[(S)-4-Carboxy-4-(19-carboxynonadecanoylamino)butyryl]-[His1,His17]-pramlintide]
0.1 nM | B5
0.02 nM | B6
0.1 nM | B7
